Laboratory results taken from article PMC11218781, “The heat shock factor 20-HSF4-cellulose synthase A2 module regulates heat stress tolerance in maize”.

B1: ZmCesA2-P2 probe (dsDNA)
DNA 1: ATTTACTACTGAAATTTATAAGGATTTGCA
DNA 2: TGCAAATCCTTATAAATTTCAGTAGTAAAT
B2: ZmHSF4-P1 probe (dsDNA)
DNA 1: GCCTTCCAGAACCTTCCTTTCCCGAAATAG
DNA 2: CTATTTCGGGAAAGGAAGGTTCTGGAAGG

Columns and labels:
[1] = biological target: T1, ZmHSF20 (Zea mays, UniProt K7U5Y9 1-318); test: EMSA; unlabeled probe competes; EMSA/Gel-Shift buffer (Beyotime GS009 kit), 4 °C, 1 h; salt and pH not stated; conditions: protein: recombinant; tags: His (pET28a); chain copies: 3; label: biotin; blunt
T1 sequence (K7U5Y9 entry or part of it): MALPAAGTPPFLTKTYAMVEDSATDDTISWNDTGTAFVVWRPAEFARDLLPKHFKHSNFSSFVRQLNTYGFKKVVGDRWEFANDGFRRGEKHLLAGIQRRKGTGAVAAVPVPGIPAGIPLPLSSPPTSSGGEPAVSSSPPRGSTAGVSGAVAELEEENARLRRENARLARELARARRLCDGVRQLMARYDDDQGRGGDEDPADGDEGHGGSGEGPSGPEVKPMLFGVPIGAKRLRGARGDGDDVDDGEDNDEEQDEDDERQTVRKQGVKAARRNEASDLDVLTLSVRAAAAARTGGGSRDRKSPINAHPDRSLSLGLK

[2] = biological target: T1, ZmHSF20; test: EMSA; EMSA/Gel-Shift buffer (Beyotime GS009 kit), 4 °C, 1 h; salt and pH not stated; conditions: protein: recombinant; tags: His (pET28a); chain copies: 3; label: biotin; 5' overhang 1 nt on strand 1 as printed (reverse strand lacks the final C)

Binder | binding result [1] | binding result [2]
B1 | binds | 
B2 |  | binds
